Results: publication PMC5462769, “A highly conserved sequence of the viral TAP inhibitor ICP47 is required for freezing of the peptide transport cycle” (Scientific Reports, 2017)
Where two headings read alike, the source gives them in different places.

Assays:
TAP (Homo sapiens) [1] = target: TAP (Homo sapiens) (UniProt Q03518); settings: cited from earlier work
TAP (Homo sapiens) [2] = target: TAP (Homo sapiens) (UniProt Q03518); settings: cited from earlier work; remark: listed apart in the source
[3] = target: rT1/hT2 (rat TAP1 with a human C-terminus, with human TAP2-FLAG) (rat | human) (UniProt P36370)
[4] = target: rT1/rT2 (rat TAP1 with a human C-terminus, with rat TAP2-FLAG) (rat | human) (UniProt P36370)
[5] = target: T1, hT1/hT2 (human TAP1 with human TAP2-FLAG) (human, UniProt Q03518 1-748; Q03519 1-686); assay: cell-based or functional assay
T1 sequence 1: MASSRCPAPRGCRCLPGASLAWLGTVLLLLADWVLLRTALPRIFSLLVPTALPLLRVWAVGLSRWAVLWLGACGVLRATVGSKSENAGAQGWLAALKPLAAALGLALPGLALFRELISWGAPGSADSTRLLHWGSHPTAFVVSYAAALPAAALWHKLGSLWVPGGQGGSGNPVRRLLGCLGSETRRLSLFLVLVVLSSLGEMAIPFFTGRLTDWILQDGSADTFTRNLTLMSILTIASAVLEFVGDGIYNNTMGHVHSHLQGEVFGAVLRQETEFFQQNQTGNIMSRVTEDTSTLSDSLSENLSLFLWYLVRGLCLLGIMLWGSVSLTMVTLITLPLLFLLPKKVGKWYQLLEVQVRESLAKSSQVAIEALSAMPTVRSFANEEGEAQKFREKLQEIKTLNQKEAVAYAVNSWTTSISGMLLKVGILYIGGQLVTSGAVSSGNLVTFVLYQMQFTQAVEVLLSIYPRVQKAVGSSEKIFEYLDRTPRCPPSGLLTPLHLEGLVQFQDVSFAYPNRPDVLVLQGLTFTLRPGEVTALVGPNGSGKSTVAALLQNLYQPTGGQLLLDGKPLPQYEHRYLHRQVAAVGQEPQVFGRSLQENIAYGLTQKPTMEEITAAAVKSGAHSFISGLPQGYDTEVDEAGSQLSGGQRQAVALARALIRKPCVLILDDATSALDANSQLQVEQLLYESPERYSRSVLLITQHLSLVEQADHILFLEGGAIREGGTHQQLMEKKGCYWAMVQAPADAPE
T1 sequence 2: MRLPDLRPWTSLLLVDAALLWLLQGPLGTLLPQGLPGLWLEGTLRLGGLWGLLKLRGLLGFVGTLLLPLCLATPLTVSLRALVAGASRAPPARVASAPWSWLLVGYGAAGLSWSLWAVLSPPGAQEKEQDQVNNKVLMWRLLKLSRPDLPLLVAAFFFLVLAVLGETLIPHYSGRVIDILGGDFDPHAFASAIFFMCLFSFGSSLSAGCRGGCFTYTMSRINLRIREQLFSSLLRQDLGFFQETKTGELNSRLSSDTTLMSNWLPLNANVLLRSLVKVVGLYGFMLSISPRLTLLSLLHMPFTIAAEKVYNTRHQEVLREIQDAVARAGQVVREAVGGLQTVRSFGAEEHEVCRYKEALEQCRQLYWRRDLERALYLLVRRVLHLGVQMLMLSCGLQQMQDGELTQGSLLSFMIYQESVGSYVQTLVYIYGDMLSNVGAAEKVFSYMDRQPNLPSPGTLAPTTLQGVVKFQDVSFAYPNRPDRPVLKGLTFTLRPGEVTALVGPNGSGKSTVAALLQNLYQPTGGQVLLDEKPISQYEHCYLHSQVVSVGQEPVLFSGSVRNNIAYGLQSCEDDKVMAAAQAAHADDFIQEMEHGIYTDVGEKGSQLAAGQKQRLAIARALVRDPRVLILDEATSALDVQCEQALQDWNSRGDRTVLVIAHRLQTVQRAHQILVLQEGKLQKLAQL

[6] = target: T2, hT1/rT2 (human TAP1 with rat TAP2-FLAG) (human | rat, UniProt Q03518 1-748; P36372 1-703); assay: cell-based or functional assay
T2 sequence 1: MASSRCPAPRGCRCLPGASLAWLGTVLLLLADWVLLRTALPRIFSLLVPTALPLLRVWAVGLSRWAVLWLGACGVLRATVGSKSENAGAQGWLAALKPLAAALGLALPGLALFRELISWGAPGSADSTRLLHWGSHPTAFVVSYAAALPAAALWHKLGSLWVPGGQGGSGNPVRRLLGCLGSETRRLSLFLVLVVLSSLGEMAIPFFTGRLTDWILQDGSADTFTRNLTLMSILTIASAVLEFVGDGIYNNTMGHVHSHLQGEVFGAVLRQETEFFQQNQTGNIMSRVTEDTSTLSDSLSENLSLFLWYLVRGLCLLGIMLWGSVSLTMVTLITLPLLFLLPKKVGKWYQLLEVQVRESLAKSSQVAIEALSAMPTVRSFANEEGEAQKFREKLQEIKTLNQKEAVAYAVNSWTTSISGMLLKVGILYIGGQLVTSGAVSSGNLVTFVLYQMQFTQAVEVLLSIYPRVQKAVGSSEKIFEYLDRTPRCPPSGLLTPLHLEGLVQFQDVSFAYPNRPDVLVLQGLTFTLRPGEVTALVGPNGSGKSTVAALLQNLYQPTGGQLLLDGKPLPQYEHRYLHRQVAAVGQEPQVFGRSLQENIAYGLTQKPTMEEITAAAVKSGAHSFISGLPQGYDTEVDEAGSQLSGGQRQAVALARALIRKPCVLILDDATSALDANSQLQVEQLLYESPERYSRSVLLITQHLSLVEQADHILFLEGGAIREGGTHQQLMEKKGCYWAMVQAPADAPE
T2 sequence 2: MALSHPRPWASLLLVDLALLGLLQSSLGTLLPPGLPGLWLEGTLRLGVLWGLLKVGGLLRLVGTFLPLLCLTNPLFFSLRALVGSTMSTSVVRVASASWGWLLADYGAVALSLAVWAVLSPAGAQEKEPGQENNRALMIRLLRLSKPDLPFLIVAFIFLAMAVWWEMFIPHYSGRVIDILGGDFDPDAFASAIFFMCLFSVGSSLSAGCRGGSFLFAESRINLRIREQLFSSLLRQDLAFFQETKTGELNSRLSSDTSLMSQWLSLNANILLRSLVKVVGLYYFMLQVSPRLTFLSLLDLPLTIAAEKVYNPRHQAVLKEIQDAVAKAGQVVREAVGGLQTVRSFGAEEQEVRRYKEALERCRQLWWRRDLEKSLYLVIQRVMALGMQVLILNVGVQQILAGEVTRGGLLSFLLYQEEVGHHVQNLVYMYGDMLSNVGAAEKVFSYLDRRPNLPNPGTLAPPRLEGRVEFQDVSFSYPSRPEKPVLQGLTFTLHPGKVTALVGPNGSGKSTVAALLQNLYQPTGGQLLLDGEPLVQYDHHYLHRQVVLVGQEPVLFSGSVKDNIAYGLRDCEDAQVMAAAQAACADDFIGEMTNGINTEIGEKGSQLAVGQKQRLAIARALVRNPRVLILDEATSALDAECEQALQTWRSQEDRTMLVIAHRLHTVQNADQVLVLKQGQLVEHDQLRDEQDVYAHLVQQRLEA

For ICP47 1-53 (from UniProt P03170), the Kd (TAP (Homo sapiens) [1]) is listed as 50 nM.

In the case of ICP47 1-48 (from UniProt P03170), the Kd (TAP (Homo sapiens) [2]) is given as 126 nM.

B1: ICP47-HA (wild-type ICP47 with a C-terminal HA-tag), in CMT64.5 cells (natural protein)
chain: MSWALEMADTFLDTMRVGPRTYADVRDEINKRGREDREAARTAVHDPERPLLRSPGLLPEIAPNASLGVAHRRTGGTVTDSPRNPVTR
With B1 the MHC class I surface expression (mAb 20-8-4) on CMT64.5 cells, ICP47-positive relative to ICP47-negative cells [3] was 47 % expression, the MHC class I surface expression (mAb 20-8-4) on CMT64.5 cells, ICP47-positive relative to ICP47-negative cells [4] was 101 % expression and the “MHC class I surface expression (mAb 20-8-4) on CMT64.5 cells, ICP47-positive relative to ICP47-negative cells” value [5] was 17 % expression. The “MHC class I surface expression (mAb 20-8-4) on CMT64.5 cells, ICP47-positive relative to ICP47-negative cells” value [6] was 88 % expression.

B2: ICP47m-HA (ICP47 with Pro50Leu51Leu52 mutated to AlaAlaAla, C-terminal HA-tag), in CMT64.5 cells (natural protein, herpes simplex virus type-1 (HSV-1), UniProt P03170 1-88, looked up)
chain: MSWALEMADTFLDTMRVGPRTYADVRDEINKRGREDREAARTAVHDPERAAARSPGLLPEIAPNASLGVAHRRTGGTVTDSPRNPVTR
In the case of B2, the “MHC class I surface expression (mAb 20-8-4) on CMT64.5 cells, ICP47-positive relative to ICP47-negative cells” value [5] is reported as 26 % expression.
